Biological target: macrophage mannose receptor on J774E murine monocyte/macrophage cells (murine) (UniProt Q61830)
Test: cell-based or functional assay

Vmax for uptake in the J774E macrophage cell line: 0.52
Substance: Cerezyme (from UniProt P04062 40-536) (enzyme)
